The results in this text go back to PMC10099707.

The experiment has as its target HDAC4 (mouse (endogenous in hippocampal tissue)) (UniProt Q6NZM9). Nature of the experiment: co-IP.
Sequence of UniProt Q6NZM9 (Q6NZM9 whole entry): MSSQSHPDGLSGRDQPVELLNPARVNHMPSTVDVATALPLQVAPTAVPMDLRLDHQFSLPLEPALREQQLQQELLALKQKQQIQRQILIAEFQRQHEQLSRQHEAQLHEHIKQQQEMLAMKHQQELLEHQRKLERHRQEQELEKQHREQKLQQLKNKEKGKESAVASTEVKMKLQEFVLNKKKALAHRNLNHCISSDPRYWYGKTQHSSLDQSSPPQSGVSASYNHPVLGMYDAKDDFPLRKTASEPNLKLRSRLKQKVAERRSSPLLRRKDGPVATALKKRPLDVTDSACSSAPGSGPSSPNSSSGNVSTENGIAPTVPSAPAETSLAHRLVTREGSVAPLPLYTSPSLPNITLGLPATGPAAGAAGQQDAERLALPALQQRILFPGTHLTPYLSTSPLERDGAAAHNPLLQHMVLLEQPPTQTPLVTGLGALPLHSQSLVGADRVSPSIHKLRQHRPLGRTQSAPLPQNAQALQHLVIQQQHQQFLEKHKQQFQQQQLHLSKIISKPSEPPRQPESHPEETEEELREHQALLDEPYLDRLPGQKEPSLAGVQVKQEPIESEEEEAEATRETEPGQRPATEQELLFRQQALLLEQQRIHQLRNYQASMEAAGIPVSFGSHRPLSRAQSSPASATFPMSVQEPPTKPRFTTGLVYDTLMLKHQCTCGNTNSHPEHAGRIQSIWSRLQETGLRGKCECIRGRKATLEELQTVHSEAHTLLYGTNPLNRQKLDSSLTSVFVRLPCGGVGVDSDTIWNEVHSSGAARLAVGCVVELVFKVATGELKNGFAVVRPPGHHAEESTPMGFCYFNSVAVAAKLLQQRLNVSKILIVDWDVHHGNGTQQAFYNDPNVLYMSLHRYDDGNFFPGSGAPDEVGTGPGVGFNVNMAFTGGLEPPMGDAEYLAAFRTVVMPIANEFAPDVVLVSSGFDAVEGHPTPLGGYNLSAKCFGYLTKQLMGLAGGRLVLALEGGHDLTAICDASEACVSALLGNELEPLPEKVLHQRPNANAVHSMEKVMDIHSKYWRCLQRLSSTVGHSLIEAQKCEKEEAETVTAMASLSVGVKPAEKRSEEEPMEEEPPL

As to “Ca2+/calmodulin‐dependent protein kinase II (CaMKII) (from UniProt P11798 1-478) (enzyme)”, the fold change AD vs WT of the co-IP band ratio CaMKII/HDAC4 (fold (AD vs WT)) was found to be 0.61.
